Our source for the binding values is paper PMC9657007.

Common to all, as to settings: EMSA: 10 mM Tris-HCl pH 7.5, 50 mM KCl, 5 mM MgCl2, 2.5% glycerol, 1 mM DTT, 50 ug/mL poly dI-dC, 20 fmol probe, room temperature 25 min (20 min in Fig …)
(In EMSA bound probe runs differently from free probe, usually more slowly.)

Data set [1] deals with T1, EcxR (Ehrlichia chaffeensis) (UniProt Q2GG40).
T1 sequence: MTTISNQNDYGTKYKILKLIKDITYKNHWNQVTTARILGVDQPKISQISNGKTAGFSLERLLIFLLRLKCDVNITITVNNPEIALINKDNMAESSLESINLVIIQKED
As to the kind of experiment: EMSA.

In data set [2] the target is T1, EcxR (Ehrlichia chaffeensis). As to the kind of experiment: Southwestern blot.
The target of data set [3] is T2, Tr1 (Ehrlichia chaffeensis) (UniProt Q2GF81).
T2 sequence: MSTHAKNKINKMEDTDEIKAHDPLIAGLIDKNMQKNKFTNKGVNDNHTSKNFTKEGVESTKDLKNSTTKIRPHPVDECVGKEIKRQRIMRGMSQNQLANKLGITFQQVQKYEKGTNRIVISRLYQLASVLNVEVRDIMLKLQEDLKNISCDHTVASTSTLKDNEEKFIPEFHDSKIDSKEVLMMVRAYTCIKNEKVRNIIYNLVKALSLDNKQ
Kind of data set: Southwestern blot.

As for “ATATAACCTAATAGTGACAAATAAATTAACAATAGTAGAAGTGTCATATAAAAGCAAGTCAGAATATAAATTTTTGTATAAAATATCGGTAACTTTTGTAAGGAAAATTTAATATATTACGTCAG (double strand) [p28-Omp19-P3]”, the binding result in data set [1] is “binds”.

As for “CAGGAGTTACTCCATGTGCAAGTAGTATCTTGTAAACACTAGTGTCTTTAACAACTGCAAGAGCTTGTAATAATCTCTCCACAGTTACATAAGTATCCTGATTCCTTTTTGCTAAACTAATAGCTTCTTCTAAAACCTGAGCCATTTCTTTTGATAAATGTATATGACCACTACCACTTCCACTTACAACAGGTAATTTACTTAAGGAGAGTTTTATATCACTGTATATCTTATCAATATCACATCCACATGAAGTCAGCAACA (double strand) [clpB-ORF]”, the binding result in data set [1] is given as “no binding”.

“CTACCTCTATAAAAAAATAAATTATCAGTAGCATCAGATACTACTAGCTAAGATCATATATAATATCAAGAAATCTAATTTCAAGTATCAATCAATAAATTTTATAATACATATTGCACAAATGTTTACAAGGTTAGAACTTTATAGGACCCAGTAGAAATATTATATTACTCTGTAACAGTTTACATAACACATAAAAAATCAATTGACTTGATACTGAAAACATCGTTGATATTTAAGTAGTTAATTTTTTAAGTAAGTTAGCATGCGCTG (double strand) [groES/L promoter (SWB probe)]”: the binding entry in data set [2] was “binds”.

“CTTTTGTAAGGAAAATTTAATATATTACGTCAGGTAAGTAATAGCAAAAAAACTGGTTAAGTATAGTATCATGTGTAAAGGTGAGAAAAACAGCAC (double strand) [p28-Omp19-P2]”: in data set [1], the binding result is given as “binds”.

In the case of “GACTCTAGACTTTTAATTTTATTATTGCCACATGTTAAAAATAATCTAAACTTGTTTTTATTATTGCTGCAGGTAAATAAAAATAGTGGCAAAAGAATGTAGCAATAAGAGGGGGGGGGGGGGGACTAGTTTATAAGTGC (double strand) [p28-Omp19-P1]”, the binding result in data set [1] is recorded as “no binding”.

As for “GATTAATAGATTCTAGGGAACTCTCTGCCATATTGTCTTTGTTAATTAATGCAATTTCTGGGTTATTGACAGTGATTGTTATATTCACATCACATTTTAGACGTAACAAAAATATAAGTAAACGTTCTAATGAAAATCCTGCTGTTTTACCATTACTAATCTGAGATATTTTTGGTTGGTCTACGCCCAGTATCCTTGCTGTGGTTACTTGGTTCCAGTGATTCTTA (double strand) [ecxR-ORF]”, the binding result in data set [1] is given as “no binding”.

For the sequence “GGATAAGTACTTTAGCAAGTGGTAAAAGCAAGTCTACTCATATTTTTATTAATTAAGTAGTAAAGTTAACTATAGATTTTATTAAAATTTTTATTCTAATCACTTTAAATATCAATTACTTTTGTTGTAAATTTGAAAGAAATTTTATATTCTAGAC (double strand) [p28-Omp14-P5]”, the binding result in data set [1] was “no binding”.

On to “GGTGTTTTTATAATTTTATTACTAAGATATTTTTTTATTAATAACTATATGCCAATACAGATAGTATAAGTATCTTATAATAAATCCATCATCTTAATGTAAGTAATACATATAACTAATAACAATAATATATTAACATTTTTATAGAATATCTATCATAATCAAACATTAACTAAATTCTCTACTAGCAGTAAATTGAATATCTACAATTTACACGTTCTACTGTTTTGCTTGCCAACTTAATTGATACTGCTTATCATCTGAATATCAAAAGATGATAGGGTACTGT (double strand) [clpB promoter (SWB probe)]”, for which the binding result in data set [2] is “binds”.

As for “GGTGTTTTTATAATTTTATTACTAAGATATTTTTTTATTAATAACTATATGCCAATACAGATAGTATAAGTATCTTATAATAAATCCATCATCTTAATGTAAGTAATACATATAACTAATAACAATAATATATTAACATTTTTATAGAATATCTATCATAATCAAACATTAACTAAATTCTCTACTAGCAGTAAATTGAATATCTACAATTTACACGTTCTACTGTTTTGCTTGCCAACTTAATTGATACTGCTTATCATCTGAATATCAAAAGATGATAGGGTACTGT (double strand) [clpB promoter EMSA probe]”, in data set [1], the binding result is reported as “binds”.

For the sequence “GGTTTAGCCATTTTAAATGTGTTTAAAAAGAAATCTTTTTGACATTATTGTAAACTTATGATTTTTATTAAGGGGAAGAGTGAACAAAATACTGTTATTAGAAGTTTACAGAAAGTTAACTG (double strand) [p28-Omp14-P2]”, the binding entry in data set [1] is “no binding”.

Take “GTACCTAAATCTATACCTATAACAGCCATAAATAGCCCCCTTACATAAAAATCAAAACTATAATCACAGATATAATAACCAAATCATAAGATTACAACCCCATTTAACACAAGTTCATAAATTTATGAA (double strand) [dnaK promoter EMSA probe]”: the binding entry in data set [1] was “binds”.

“GTACCTAAATCTATACCTATAACAGCCATAAATAGCCCCCTTACATAAAAATCAAAACTATAATCACAGATATAATAACCAAATCATAAGATTACAACCCCATTTAACACAAGTTCATAAATTTATGGCATGCGCTG (double strand) [dnaK promoter (SWB probe)]”: the binding entry in data set [2] is “binds”.

With “GTTCCGTATTTATTAATATATGTTATAATGTAATTAAATAAGGATACTAGATTTGCTCATAATGCATGTACTGAATTTGTGATTTGAAATAACAAGACTTAAATGTCGAATTTAGCTTCTGTCCTAGTGGATAAGTACTTTAGCAAGTGGTAAAAGCAAGTCTACTCATATTTTTATTAATTAAGTAGTAAAGTTAACTATAG (double strand) [p28-Omp14-P4]”, in data set [1], the binding result was “binds”.

Take “GTTTTCTGCTTTATTAGAATGATTCCCAAATAAATTTTAATTAATTACTGTTCCGTATTTATTAATATATGTTATAATGTAATTAAATAAGGATACTAGATTTGCTCATAATGCATGTAC (double strand) [p28-Omp14-P3]”: in data set [1], the binding result is given as “binds”.

Take “TAACTTACTTAAAAAATTAACTACTTAAATATCAACGATGTTTTCAGTATCAAGTCAATTGATTTTTTATGTGTTATGTAAACTGTTACAGAGTAATATAATATTTCTACTGGGTCCTATAAAGTTCTAACCTTGTAAACATTTGTGCAATATGTATTATAAAATTTATTGATTGATACTTGAAATTAGATTTCTTGATATTATATATGATCTTAGCTAGTAGTATCTGATGCTACTGATAATTTATTTTTTTATAGAGGTAG (double strand) [groES/L promoter EMSA probe]”: the binding result in data set [1] is “binds”.

“TACCCGGACAAACTGACTTTCATGTTTAATATAAATTATTGATCCAATCAAGCTAAAAAGTAAATAAATTTTATCTTATATTTCATAAAGCATAATATGTTATTTCTGTATATTATATAATTAGTATACTATTCCAGCAAACTAGATAGAATATATCCATTAAATAACTATTGCATTCACTTTATGCATGATTTATCTTACATAGGTTGCTTTGT (double strand) [tr1 promoter (SWB probe)]”: the binding result in data set [2] and in data set [3] was “binds” throughout.

As for “TTGCTCAACCATAAAATAATGGGAAATTACCTTTTCTAGGAAGTTTCTCATTATTTAACAGTTAACTTTCTGTAAACTTCTAATAACAGTATTTTGTTCACTCTTCCCCTTAATAAAAATCATAAGTTTACAATAATGTCAAAAAGATTTCTTTTTAAACACATTTAAAATGGCTAAACC (double strand) [p28-Omp14-P1]”, the binding entry in data set [1] was “binds”.
